According to PMC10699647, “Structural basis of G protein–Coupled receptor CMKLR1 activation and signaling induced by a chemerin-derived agonist” (PLOS Biology, 2023):

Columns and labels:
CMKLR1 = details: cited from earlier work
Source text: The apparent contradictory functional roles of CMKLR1 in inflammation may be associated with the spatiotemporal regulation of the inflammation processes in cells. It is possible that in the early stage of inflammation, the CMKLR1 signaling is mainly pro-inflammatory by promoting chemotaxis and activation of DCs and macrophages, whereas at the late stage of inflammation, CMKLR1 activation can induce pro-resolving pathways to dampen inflammation. Another possibility for the differing effects of CMKLR1 signaling on inflammation is that different chemerin isoforms may activate CMKLR1 to induce dis ... || The potential roles of CMKLR1 signaling in inflammation may provide promising new opportunities for developing anti-inflammatory drugs. […] Nevertheless, the only commercially a ...

[1] = system: primary human macrophages; experiment: Macrophage differentiation assay, surface markers by flow cytometry (MFI fold-change); details: 72 hours, 10 ng/mL (each), vs M0, n = 4 donors
Description: Monocytes were enriched from human PBMC by CD14 beads positive selection (Miltenyi Biotec) and cultured in IMDM supplanted with 10% human AB serum (Omega Scientific, Cat# HS-20) for 7 days for them to differentiate to macrophages.
Differentiated macrophages were then replated to low-bind plate at 0.15 million cells per 24-well plate, in 500 μl medium overnight before stimulated with various condition. Human macrophage medium was used as M0 reference culture condition, while 10 ng/ml IFNg plus 10 ng/ml LPS supplement were used as M1 reference, and 10 ng/ml IL-10 supplement used as M2 reference. […] Data were acquired on Cytek Aurora flowcytometry, analysis on Flowjo. MFI quantifications were normalized to M0 condition and statistically analyzed by 2-way ANOVA, with Dunnett’s multiple comparisons test; all groups were pair analyzed with M0 group as reference.

chemerin15: synthetic peptide corresponding to the 141–155 amino acid segment of chemerin (AGEDPHSFYFPGQFA; UniProt Q99969 141-155, looked up, fragment)
agonism and anti-inflammatory effects (CMKLR1; CMKLR1, ref [9]): stable agonists of CMKLR1 that induce anti-inflammatory effects

C[N+](C)(C)CCC(=O)c1cccc2ccccc12.[I-] [α-NETA]
potency against CMKLR1 (CMKLR1; antagonist, ref [30]): low micromolar potency

B1: IL-10: 10 ng/ml IL-10 supplement used as M2 reference (protein, UniProt P22301 19-178, looked up)
Interleukin-10: SPGQGTQSENSCTHFPGNLPNMLRDLRDAFSRVKTFFQMKDQLDNLLLKESLLEDFKGYLGCQALSEMIQFYLEEVMPQAENQDPDIKAHVNSLGENLKTLRLRLRRCHRFLPCENKSKAVEQVKNAFNKLQEKGIYKAMSEFDIFINYIEAYMTMKIRN
CD86 expression in words [1]: down-regulation | CD163 expression in words [1]: up-regulation | CD206 expression in words [1]: up-regulation
